The target of this assay is T1, recombinant human CD40 monomer (human, UniProt P25942 21-193).
T1 construct: also called huCD40-monomer; soluble human CD40
Nature of the assay: BLI (Octet RED); antibody supernatant captured on protein A sensors, huCD40-monomer in solution. The text has this:
The closest matching human germline region sequence was selected for each mouse variable domain, and these human framework regions were used to replace murine frameworks in the “CDR graft” versions of the antibodies. Additional amino acid substitutions, such as framework back-mutations, were then made as necessary to restore the binding affinity of the humanized antibody. Further amino acid substitutions were made to eliminate sequence liabilities. The sequence relationships between the various forms of the antibodies of the present invention are provided at Table 6. The binding of various agonistic anti-huCD40 antibodies to soluble human CD40 was determined by Biolayer Interferometry (BLI) analysis using a Fortebio Octet RED (Rapid system—Extended Detection) label-free interaction analysis instrument. All studies were performed in 10 mM NaₓPO₄, 130 mM NaCl, 0.05% Surfactant P20 (pH 7.1) at 25° C. Briefly, anti-huCD40 antibody supernatants (diluted to 10 μg/ml or captured undiluted if supernatant concentration was less than 10 μg/ml) were captured on protein A coated biosensors (Pall Fortebio #18-5010) using a loading time of 90 s and shake speed of 1000 rpm. Supernatants were first screened for binding to 1 μM recombinant human CD40 monomer (huCD40-monomer) using 180 s association and dissociation times, at 1000 rpm, with two 15 s conditioning steps using 10 mM glycine pH 1.5 in between binding cycles.
A general note: BLI is a label-free optical method that tracks binding on a fibre tip over time.

Residue numbers refer to the chain shown, from its start. Names may count otherwise.

As usually defined, the Kd is the equilibrium constant for the complex coming apart.

T1 sequence (P25942 21-193 limits assumed): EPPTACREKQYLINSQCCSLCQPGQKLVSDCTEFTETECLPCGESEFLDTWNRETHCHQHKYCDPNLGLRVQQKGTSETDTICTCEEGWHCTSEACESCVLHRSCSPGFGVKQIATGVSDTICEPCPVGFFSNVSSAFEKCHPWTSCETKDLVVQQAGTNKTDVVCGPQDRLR

B1: 5G7 (parental) (antibody, V domains shown)
VH: EVLLQQSGPELVKPGASVKIPCKASGYKFTDYNMDWVKQSHGKSLEWIGDINPKNGGTIYNLKFKGKATLTVDMSSSTAYMELRSLTSEDTAVYYCVRRMDYWGQGTSVTVSS
VL: DIQMTQTTSSLSASLGDRVTISCRASQDISNYLNWYQQKPDGTVKLLIYYISRLHSGVPSRFRGSGSGTDFSLTISNLEQEDIATYFCQQGNTLPYTFGGGTNLEIK
notes: Mouse variable domains; also called 1802.3583.5G7.F12.G3; mAb 5G7
B1: the Kd is 89 nM.

B2: 19G3 (parental) (antibody, V domains shown)
VH: EVQLVESGGGLVKPGGSLKLSCAASGFTFSSYAMSWVRQSPEKRLEWVAEISGGGSYTYYPDTVTGRFTISRDNAKNTLYLEMSSLRSEDTAMYYCASRAYWGQGTLVTVSA
VL: DVLMTQTPLSLPVSLGDQASISCRSSQSIVHSNGNTYFEWYLQKPGQSPKLLIYKVSNRFSGVPDRFSGSGSGTDFTLKISRVEAEDLGVYYCFQGSHVPYTFGGGTKLEIK
notes: Mouse variable domains; also called 1802.3582.19G3.F10.E1; mAb 19G3
Regarding B2, the Kd was 870 nM.

B3: 5F11-17 (antibody, human IgG1, kappa)
heavy: not shown
light: DIVMTQSPDSLAVSLGERATINCRASKNVDSYGNSFMHWYQQKPGQPPKLLIYRASNLESGVPDRFSGSGSGTDFTLTISSLQAEDVAVYYCQQSNEDPLTFGQGTKLEIKRTVAAPSVFIFPPSDEQLKSGTASVVCLLNNFYPREAKVQWKVDNALQSGNSQESVTEQDSKDSTYSLSSTLTLSKADYEKHKVYACEVTHQGLSSPVTKSFNRGEC
notes: Humanized; IgG1f
Consider B3, for which the Kd came to 8.4 nM.

B4: 5F11-45 (antibody, human IgG1, kappa)
heavy: not shown
light: B3 light with M4L
notes: Humanized; IgG1f
With B4, the Kd was found to be 12.3 nM.

B5: 5F11-23 (antibody, human IgG1, kappa)
heavy: not shown
light: B3 light with M4L, N22S
notes: Humanized; IgG1f
Consider B5, for which the Kd is 4.9 nM.

B6: 12D6-03 (antibody, human IgG1, kappa, V domains shown)
VH: QVQLVQSGAEVKKPGASVKVSCKASGYTFTGYNMNWVRQAPGQGLEWMGNIDPYYGNTNYNQKFKGRVTMTTDTSTSTAYMELRSLRSDDTAVYYCARLGLQLYAMDYWGQGTTVTVSS
VL: DIVMTQTPLSLPVTPGEPASISCRSSQSLVHSNGNTYLHWYLQKPGQSPQLLIYKLTNRFFGVPDRFSGSGSGTDFTLKISRVEAEDVGVYYCSQSIHVPWTFGGGTKVEIKR
notes: Humanized
With B6, the Kd is 4.8 nM.

B7: 19G3-11 (antibody, human IgG1, kappa, V domains shown)
VH: EVQLVESGGGLVKPGGSLRLSCAASGFTFSSYAMSWVRQAPGKGLEWVSEISGGGSYTYYPDTVTGRFTISRDNAKNSLYLQMNSLRAEDTAVYYCASRAYWGQGTLVTVSS
VL: B6 VL with L29I, L38F, H39E, L56V, T57S, F61S, S94F, S96G, I97S, W101Y
notes: Humanized; IgG1f
With B7, the Kd stood at 850 nM.

B8: 8E8-62 (antibody, human IgG1, kappa, V domains shown)
VH: QVQFVQSGAEVKKPGSSVKVSCKASGYTFTSYWMQWVRQAPGQGLEWMGTIYPGDGDSRYNQKFKGKALLTADKSTSTAYMELSSLRSEDTAVYYCARFSLYEGYPYYFDYWGQGTTVTVSS
VL: B6 VL with T7S, S32R, K55R, L56V, T57S, F61S, I97T, V99F, W101Y
notes: Humanized; IgG1f
In the case of B8, the Kd turned out to be 31 nM.

B9: 8E8-70 (antibody, human IgG1, kappa, V domains shown)
VH: B8 VH with G56S
VL: B6 VL with T7S, S32R, K55R, L56V, T57S, F61S, I97T, V99F, W101Y
notes: Humanized; IgG1f
Consider B9, for which the binding result is given as “binds”.

B10: 8E8-71 (antibody, human IgG1, kappa, V domains shown)
VH: B8 VH with G56S
VL: B6 VL with T7S, S32R, G34A, K55R, L56V, T57S, F61S, I97T, V99F, W101Y
notes: Humanized; IgG1f
As to B10, the binding result is “binds”.

B11: 8E8-67 (antibody, human IgG1, kappa, V domains shown)
VH: B8 VH
VL: B6 VL with T7S, S32R, G34A, K55R, L56V, T57S, F61S, I97T, V99F, W101Y
notes: Humanized; IgG1f
As to B11, the Kd came out at 28 nM.

B12: 8E8-66 (antibody, human IgG1, kappa, V domains shown)
VH: B8 VH with E103D
VL: B6 VL with T7S, S32R, G34A, K55R, L56V, T57S, F61S, I97T, V99F, W101Y
On to B12, for which the Kd came out at 82 nM.

B13: 12D6-23 (antibody, human IgG1, kappa, V domains shown)
VH: B6 VH with M106L
VL: B6 VL
notes: Humanized; IgG1f
In the case of B13, the Kd stood at 4.3 nM.

B14: 8E8-56 (antibody, human IgG1, kappa, V domains shown)
VH: B8 VH with E103D
VL: B6 VL with T7S, S32R, K55R, L56V, T57S, F61S, I97T, V99F, W101Y
notes: Humanized; IgG1f
For B14, the Kd is 82 nM.

B15: 19G3-22 (antibody, human IgG1, kappa, V domains shown)
VH: B7 VH
VL: DIVMTQTPLSLPVTPGEPASISCRSSQSIVHSQGNTYFEWYLQKPGQSPQLLIYKVSNRFSGVPDRFSGSGSGTDFTLKISRVEAEDVGVYYCFQGSHVPYTFGGGTKVEIKR
notes: Humanized; IgG1f
Turning to B15, the dissociation constant Kd amounted to 99 nM.

B16: 12D6-22 (antibody, human IgG1, kappa, V domains shown)
VH: B6 VH
VL: B6 VL with G34A
notes: Humanized; IgG1f
On to B16, for which the Kd came out at 3.6 nM.

B17: 12D6-24 (antibody, human IgG1, kappa)
heavy: not shown
light: DIVMTQTPLSLPVTPGEPASISCRSSQSLVHSNANTYLHWYLQKPGQSPQLLIYKLTNRFFGVPDRFSGSGSGTDFTLKISRVEAEDVGVYYCSQSIHVPWTFGGGTKVEIKRTVAAPSVFIFPPSDEQLKSGTASVVCLLNNFYPREAKVQWKVDNALQSGNSQESVTEQDSKDSTYSLSSTLTLSKADYEKHKVYACEVTHQGLSSPVTKSFNRGEC
notes: Humanized; IgG1f; also called 12D6-24 IgG1f; mAb 12D6-24 human IgG1f (control)
For the molecule B17, the Kd came to 5.6 nM.

B18: 19G3-23 (antibody, human IgG1, kappa, name in Kabat numbering, V domains shown)
VH: B7 VH
VL: B15 VL with Q33N, G34A
notes: Heavy chain inferred from the identical VH description (VH3-21 S94R) of 19G3-11; Light chain is the VKII O11 CDR graft of 19G3-11 with G29A
Take B18: the Kd worked out at 1300 nM.

B19: 12D6 (parental) (antibody, V domains shown)
VH: EVQLQQSGPELEKPGASVKMSCKASGYSFTGYNMNWVKQSNGKSLEWIGNIDPYYGNTNYNQKFKGKATLTVDKSSSTAYLQLKSLTSEDSAVYYCARLGLQLYAMDYWGQGTSVTVSS
VL: DVVMTQTPLSLPVSLGDQASISCRSSQSLVHSNGNTYLHWYLQKPGQSPNLLIYKLTNRFFGVPDRFSGSGSGTDFTLKISRVEAEDLGVYFCSQSIHVPWTFGGGTKLEIK
notes: Mouse variable domains; also called 1802.3716.12D6.B1.E3; mAb 12D6
Take B19: the dissociation constant Kd is 3.6 nM.

B20: 8E8 (parental) (antibody, V domains shown)
VH: QVQFQQSGAELARPGASVKLSCKASGYTFTSYWMQWVKQRPGQGLEWIGTIYPGDGDSRYNQKFKGKALLTADKSSSIAYMQLNSLASEDSAVYFCARFSLYDGYPYYFDYWGQGTTLTVSS
VL: B19 VL with S32R, N50K, K55R, L56V, T57S, F61S, V90I, I97T, V99F, W101Y
notes: Mouse variable domains; also called 1802.3583.8E8.C10.G2; mAb 8E8
Regarding B20, the Kd worked out at 85 nM.

B21: 5G7-25 (antibody, human IgG1, kappa, V domains shown)
VH: QVQLVQSGAEVKKPGASVKVSCKASGYTFTDYNMDWVRQAPGQGLEWMGDINPKNAGTIYNLKFKGRVTLTVDTSTSTAYMELRSLRSDDTAVYYCVRRMDYWGQGTTVTVSS
VL: DIQMTQSPSSLSASVGDRVTITCRASQDISNYLNWYQQKPGKVPKLLIYYISRLHSGVPSRFSGSGSGTDFTLTISSLQPEDVATYYCQQGNTLPYTFGGGTKVEIKR
notes: Humanized; IgG1f
B21: the Kd was found to be 69 nM.

B22: 5G7-28 (antibody, human IgG1, kappa, name in Kabat numbering, V domains shown)
VH: B21 VH with M100L
VL: B21 VL
As for B22, the Kd was 230 nM.

B23: 5G7-22 (antibody, human IgG1, kappa, V domains shown)
VH: B21 VH with A56G, V72T
VL: B21 VL
notes: Humanized; IgG1f
With B23, the dissociation constant (Kd) is 50 nM.
